{
  "source": "patent US20090053180A1",
  "about": "“Tandem cardiac pacemaker system” (priority 2005, published 2009)",
  "molecules": {"B1": {"name": "mHCN2: mouse HCN2 pacemaker ion channel (GenBank AJ225122), expressed from plasmid, cRNA or adenoviral construct AdmHCN2 (protein, UniProt O88703 1-863, looked up)", "Potassium/sodium …": "MDARGGGGRPGDSPGTTPAPGPPPPPPPPAPPQPQPPPAPPPNPTTPSHPESADEPGPRARLCSRDSACTPGAAKGGANGECGRGEPQCSPEGPARGPKVSFSCRGAASGPSAAEEAGSEEAGPAGEPRGSQASFLQRQFGALLQPGVNKFSLRMFGSQKAVEREQERVKSAGAWIIHPYSDFRFYWDFTMLLFMVGNLIIIPVGITFFKDETTAPWIVFNVVSDTFFLMDLVLNFRTGIVIEDNTEIILDPEKIKKKYLRTWFVVDFVSSIPVDYIFLIVEKGIDSEVYKTARALRIVRFTKILSLLRLLRLSRLIRYIHQWEEIFHMTYDLASAVMRICNLISMMLLLCHWDGCLQFLVPMLQDFPSDCWVSINNMVNHSWSELYSFALFKAMSHMLCIGYGRQAPESMTDIWLTMLSMIVGATCYAMFIGHATALIQSLDSSRRQYQEKYKQVEQYMSFHKLPADFRQKIHDYYEHRYQGKMFDEDSILGELNGPLREEIVNFNCRKLVASMPLFANADPNFVTAMLTKLKFEVFQPGDYIIREGTIGKKMYFIQHGVVSVLTKGNKEMKLSDGSYFGEICLLTRGRRTASVRADTYCRLYSLSVDNFNEVLEEYPMMRRAFETVAIDRLDRIGKKNSILLHKVQHDLSSGVFNNQENAIIQEIVKYDREMVQQAELGQRVGLFPPPPPPQVTSAIATLQQAVAMSFCPQVARPLVGPLALGSPRLVRRAPPGPLPPAASPGPPAASPPAAPSSPRAPRTSPYGVPGSPATRVGPALPARRLSRASRPLSASQPSLPHGVPAPSPAASARPASSSTPRLGPAPTARTAAPSPDRRDSASPGAASGLDPLDSARSRLSSNL"}},
  "key": {"[1]": {"tested_on": "newborn rat ventricular myocytes", "assay": "Whole-cell voltage clamp of expressed HCN current in newborn rat ventricular myocytes", "format": "cell-based", "settings": "for V1/2 / s: fit of average data; for current density: measured at −135 mV", "description": "Adult rats were anesthetized with ketamine-xylazine before cardiectomy, and neonatal rats decapitated. Newborn rat ventricular myocyte cultures were prepared as previously described (Protas and Robinson, 1999). Briefly, 1-2-day-old Wistar rats were euthanized, hearts were quickly removed and ventricles were dissociated using a standard trypsinization procedure. Myocytes were harvested, preplated to reduce fibroblast proliferation, cultured initially in serum-containing medium (except when being transfected with plasmids as described below), and then incubated in serum free medium (SFM) at 37° C., 5% CO2 after 24 h. Action potential studies were conducted on 4-day-old monolayer cultures plated directly onto fibronectin-coated 9×22 mm glass coverslips. For voltage clamp experiments, 4-6 day old monolayer cultures were resuspended by brief (2-3 min) exposure to 0.25% trypsin, then replated onto fibronectin-coated coverslips and studied within 2-8 h.\nAdenoviral infection of the newborn ventricular myocytes was performed on cell monolayer cultures 4 days after initial plating. Cells were exposed to a virus-containing mix (m.o.i. 20, in 250 μl of culture medium) for 2 h, rinsed twice and incubated in SFM at 37° C., 5% CO2 for 24-48 hours prior to the cells being resuspended as described above for electrophysiological study.\nThe whole-cell patch clamp technique was employed to record mHCN2 current from cultured myocytes. Experiments were carried out on cells superfused at 35° C. The external solution contained (mM): NaCl, 140; NaOH, 2.3; MgCl2, 1; KCl, 10; CaCl2, 1; HEPES, 5; glucose, 10; pH 7.4. MnCl2 (2 mM) and BaCl2 (4 mM) were added to block other currents. The pipette solution contained (mM): aspartic acid, 130; KOH, 146; NaCl, 10; CaCl2, 2; EGTA-KOH, 5; Mg-ATP, 2; HEPES-KOH, 10; pH 7.2.\nTo measure the HCN activation curve, a standard two-step protocol was employed. Hyperpolarizing steps from −25 to −135 mV for mHCN2 and from −5 or −15 to −135 mV for mE324A were applied from a holding potential of −10 mV, followed by a tail current step (to −125 or −135 mV). The duration of test steps was longer at less hyperpolarized potential for mHCN2 channels, to more closely approach steady-state activation at all voltages. The normalized plot of tail current versus test voltage was fit with a Boltzmann function and then the voltage of half maximum activation (V1/2) and slope factor(s) were defined from the fitting. Activation kinetics were determined from the same traces, while deactivation kinetics were determined from traces recorded at each test potential after achieving full activation by a prepulse to −135 mV. Time constants were then obtained by fitting the early time course of activation or deactivation current traces with a monoexponential function; the initial delay and any late slow activation or deactivation phase were ignored (Qu et al., 2001; Altomare et al., 2001). Current densities are expressed as the value of the time-dependent component of current amplitude, measured at the end of the test potential and normalized to cell membrane capacitance. Records were not corrected for liquid junction potential, which was previously determined to be 9.8 mV under these conditions (Qu et al., 2001)."}, "[2]": {"tested_on": "cell-free patches from Xenopus oocytes", "settings": "cited from earlier work"}, "[3]": {"tested_on": "canine proximal LV conducting system", "settings": "sinus rhythm suppressed by vagal stimulation; cited from earlier work"}, "[4]": {"tested_on": "Xenopus oocytes", "assay": "Two-microelectrode voltage clamp of expressed HCN current in Xenopus oocytes", "format": "cell-based, Xenopus laevis"}, "[5]": {"tested_on": "dogs with complete AV block", "assay": "Tandem biological and electronic pacemakers in dogs with complete AV block (injection into left bundle branch)", "format": "in vivo, dog", "description": "Adult mongrel dogs weighing 22-25 kg were anesthetized with propofol 6 mg/kg IV and inhalational isoflurane (1.5%-2.5%). Using a steerable catheter, saline (n=5), AdmHCN2 (n=6) or AdmE324A (n=4) were injected into the left bundle branch (LBB) as described previously (Plotnikov et al., 2004). In 2 additional dogs AdmE324A was injected into the LV septal myocardium as an internal control. Complete AV block was induced via radiofrequency ablation and each site of injection was paced via catheter electrode to distinguish electrocardiographically the origin of the idioventricular rhythm during the follow up period.\nAn electronic pacemaker (Discovery II, Flextend lead; Guidant, Indianapolis, Ind.) was implanted and set at VVI 45 bpm. ECG, 24 hour Holter monitoring, pacemaker log record check, and overdrive pacing at 80 bpm were performed daily for 14 days. To evaluate beta-adrenergic responsiveness, on day 14, epinephrine (1.0, 1.5 and 2.0 μg/kg/min for up to 10 min each) was infused to an endpoint of a 50% increase in idioventricular rate or ventricular arrhythmia (single ventricular premature beats having a morphology other than that of the dominant idioventricular rhythm or ventricular tachycardia), whichever occurred first. If none of the above responses was observed within 10 min after onset of the maximal dose of 2 μg/kg/min, the infusion was terminated.\nData are presented as means±SEM. […] One-way ANOVA was used to evaluate the effect of an implanted construct on electrophysiological parameters. Subsequent analysis was performed using Bonferroni's test where equal variances were assumed and the Games-Howell test where variances were unequal. A two-way contingency table analysis was conducted to evaluate whether epinephrine had different effects across three groups. Data were analyzed using SPSS for Windows software (SPSS, Inc.). P<0.05 was considered to be significant.\nComplete AV block was induced via radiofrequency ablation, and electronic pacemakers were implanted into the right ventricular apical endocardium and set a VV1 45 bpm. ECG and 24-h monitoring were performed daily for 14 days. Beta-adrenergic responsiveness was also evaluated as described above.\nEscape time was evaluated daily by performing three 30-s periods of ventricular overdrive pacing at 80 bpm followed by an abrupt cessation of pacing. The average time between the final electronically paced beat and the first intrinsic beat was then determined. […] There was a different result with regard to basal heart rates throughout the 14-day period, however."}, "[6]": {"settings": "10 μM cAMP in the pipette solution"}},
  "note": "“Also recorded” adds a separate entry of the source.",
  "data": [
    {"molecule": "B1", "values": [
      {"measurement": "shift of V1/2 by cAMP", "setting": "[1]; [6]", "value": 9.7, "unit": "mV"},
      {"measurement": "percentage of myocytes expressing current", "setting": "[1]; 6 matched cell cultures", "value": 74.5, "unit": "%"},
      {"measurement": "midpoint of activation", "setting": "[1]; HCN2 virus characterized in neonatal rat myocytes", "value": "−69.3", "unit": "mV"},
      {"measurement": "activation τ", "setting": "[1]; at −65 mV", "value": "639 ± 72", "unit": "ms"},
      {"measurement": "V1/2", "setting": "[1]; [6]", "value": "−59.9", "unit": "mV"},
      {"measurement": "s", "setting": "[1]; [6]", "value": 11.0, "unit": "mV"},
      {"measurement": "V1/2", "setting": "[1]; absence of cAMP", "value": "−69.6", "unit": "mV"},
      {"measurement": "s", "setting": "[1]; absence of cAMP", "value": 10.8, "unit": "mV"},
      {"measurement": "slope factor s", "setting": "[1]; mean of individual Boltzmann fits", "value": "10.7±0.5", "unit": "mV"},
      {"measurement": "V1/2 (voltage of half maximum activation)", "setting": "[1]; mean of individual Boltzmann fits, adenoviral infection", "value": "−66.1±1.5", "unit": "mV"},
      {"measurement": "current density", "setting": "[1]", "value": "53.5±8.7", "unit": "pA/pF"},
      {"measurement": "current density", "setting": "[1]; listed as HCN2", "value": "53.5±8.3", "unit": "pA/pF"},
      {"measurement": "shift of activation curve to more positive potentials by cAMP", "setting": "[2]", "value": 17, "unit": "mV"},
      {"measurement": "rate of idioventricular rhythms", "setting": "[3]", "value": "50-60 bpm"},
      {"measurement": "activation more negative than mE324A", "setting": "[4]", "value": 35, "unit": "mV"},
      {"measurement": "effect of Cs+ on inward current", "setting": "[4]; 5 mM Cs+", "value": "blocked; also recorded: large inhibition"},
      {"measurement": "share of animals with 50% or more increase that required the highest dose of epinephrine", "setting": "[5]; 2 μg/kg/min", "value": 33, "unit": "%"},
      {"measurement": "beats triggered by the electronic pacemaker, of all beats", "setting": "[5]; 14 days, electronic pacemaker set at VVI 45 bpm", "value": "26±6", "unit": "%"},
      {"measurement": "arrhythmias during epinephrine infusion", "setting": "[5]; day 14", "value": "two animals developed ventricular arrhythmias"},
      {"measurement": "mean basal heart rate compared with saline group", "setting": "[5]; days 1-7 and 8-14", "value": "significantly faster"},
      {"measurement": "animals with less than a 50% increase in rate", "setting": "[5]; epinephrine 1.0, 1.5, 2.0 μg/kg/min, day 14", "value": 50, "unit": "%"},
      {"measurement": "control rate prior to epinephrine", "setting": "[5]; representative animal, day 14", "value": 44, "unit": "bpm"},
      {"measurement": "rate with epinephrine", "setting": "[5]; representative animal, epinephrine 1 μg/kg/min", "value": 60, "unit": "bpm"}
    ]}
  ]
}
